Measurements reported in US20130108641A1 (Sanofi, published 2013).
Substitutions are numbered along the chain they refer to.

T1: human GITR expressed on cells (human, UniProt Q9Y5U5 26-241)
T1 construct: whole, on cells; Used for HEK293 transfectants and for PHA-stimulated human PBMCs; also called hGITR; cell surface hGITR
T1 sequence (looked up): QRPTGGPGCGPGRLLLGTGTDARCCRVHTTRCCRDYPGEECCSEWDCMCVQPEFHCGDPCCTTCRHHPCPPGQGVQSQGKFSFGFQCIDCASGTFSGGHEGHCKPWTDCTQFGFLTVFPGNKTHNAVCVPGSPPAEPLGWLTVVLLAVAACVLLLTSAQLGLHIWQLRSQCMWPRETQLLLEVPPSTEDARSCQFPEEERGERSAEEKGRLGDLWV

T2: human GITR-Fc fusion protein (human, UniProt Q9Y5U5 26-162)
T2 construct: extracellular domain; also called hGITR-Fc; recombinant human GITR-Fc; not shown: Fc part
T2 sequence (looked up): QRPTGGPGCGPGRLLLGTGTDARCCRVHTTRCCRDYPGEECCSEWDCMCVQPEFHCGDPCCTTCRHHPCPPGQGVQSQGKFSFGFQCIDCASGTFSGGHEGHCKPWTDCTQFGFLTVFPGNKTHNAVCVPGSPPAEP

T3: human GITR protein (form not stated) (human, UniProt Q9Y5U5 26-161, limits assumed)
T3 construct: also called hGITR
T3 sequence (looked up): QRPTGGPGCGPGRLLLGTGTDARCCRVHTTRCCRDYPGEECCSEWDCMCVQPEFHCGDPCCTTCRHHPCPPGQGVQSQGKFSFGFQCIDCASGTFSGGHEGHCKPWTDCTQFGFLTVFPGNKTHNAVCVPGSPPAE

B1: anti-GITR antibody clone 706 (antibody, V domains shown)
VH: EVQLQQSGTVLARPGASVKMSCEASGYSFTTYWMHWIKQRPGQGLEWIGAIYPGNSDTGYNQKFKGKAKLTAVTSASTAYMELSSLTNEDSAVYYCTRTSTYPHFDYWGQGTTLTVSS
VL: DILLTQSPAILSVSPGERVSFSCRASQSIGTSIHWYQQRTNGSPRLLIKYASESISGIPSRFSGSGSGTDFTLNINSVESEDIADYYCQQTNNWPLTFGAGTKLELK
notes: Murine hybridoma antibody; also called 706-GITR2; 706 GITR-2
B2: anti-GITR antibody clone 1649 (antibody, V domains shown)
VH: B1 VH with R13G, A16T, M34I, T58A, T99S
VL: B1 VL with G42D
notes: Murine hybridoma antibody; also called 1649-GITR2; 1649 GITR-2
B3: anti-GITR antibody clone 698 (antibody, V domains shown)
VH: B1 VH with S77T, N88D
VL: B1 VL with T91S
notes: Murine hybridoma antibody; also called 698-GITR2; 698 GITR-2
B4: anti-GITR antibody clone 827 (antibody, V domains shown)
VH: B1 VH with A24T, M34I, G49A, A50T, T58A, K65R, T99S
VL: B1 VL with G42D
notes: Murine hybridoma antibody; also called 827-GITR2; 827 GITR-2
B5: humanized anti-GITR antibody 2155 variant HC2-LC1 (antibody, V domains shown)
VH: QVTLVESGGGLVKPGGSLTLSCGASGFTISSYAMSWVRQSPGKALEWVAIISTGGSTYYPDSVRGRFTISRDNAKNSLYLTMSSLDSVDTATYYCARVGGYYDSMDHWGQGTSVT
VL: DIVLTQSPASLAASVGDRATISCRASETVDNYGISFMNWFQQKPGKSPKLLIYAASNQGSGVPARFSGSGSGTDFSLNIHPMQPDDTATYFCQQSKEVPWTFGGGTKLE
notes: also called LC1 and HC2
B6: humanized anti-GITR antibody 2155 variant HC3b-LC2a (antibody, V domains shown)
VH: B5 VH with V5K, S62K, V63F, D86R, V88E
VL: DIVLTQSPASLSASVGDRATISCRASETVDNYGISFMNWFQQKPGQSPKLLIYAASNQGSGVPARFSGSGSGTDFSLTISPMQPDDTATYYCQQSKEVPWTFGGGTKLE
notes: also called LC2a and HC3b
B7: humanized anti-GITR antibody 2155 variant HC1-LC1 (antibody, V domains shown)
VH: B5 VH with T92M
VL: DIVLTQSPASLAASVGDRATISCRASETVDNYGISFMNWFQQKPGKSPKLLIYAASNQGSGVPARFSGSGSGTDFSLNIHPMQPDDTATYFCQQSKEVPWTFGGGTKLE
notes: also called LC1 and HC1
B8: humanized anti-GITR antibody 2155 variant HC3a-LC2a (antibody, V domains shown)
VH: B5 VH with S62K, V63F, D86R, V88E
VL: B6 VL
notes: also called LC2a and HC3a
B9: chimeric 2155 antibody (antibody, V domains shown)
VH: EVKLVESGGGLVKPGGSLKLSCGASGFTISSYAMSWVRQSPEKRLEWVAIISTGGSTYYPDSVRGRFTISRDNARNSLYLQMSSLRSEDTAMYYCARVGGYYDSMDHWGQGTSVTVSS
VL: not shown
B10: humanized anti-GITR antibody 2155 variant HC4-LC3 (antibody, V domains shown)
VH: EVQLVESGGGLIQPGGSLKLSCAASGFTISSYAMSWVRQAPGKGLEWVAIISTGGSTYYADSVKGRFTISRDNSKNTLYLQMNSLRAEDTAVYYCARVGGYYDSMDHWGQGTSVT
VL: DIVLTQSPASLAVSPGQRATITCRASETVDNYGISFMNWFQQKPGQPPKLLIYAASNQGSGVPARFSGSGSGTDFTLTINPVEADDTANYYCQQSKEVPWTFGQGTKVE
notes: also called LC3 and HC4

Each binder was assayed against T4, cynomolgus monkey GITR-Fc (cynomolgus monkey) (assay: SPR; KD on cGITR-Fc over KD on hGITR-Fc).
T4 construct: extracellular domain; also called cGITR-FC; cGITR
Experimental: (§1) The binding kinetics of several anti-GITR antibodies to recombinant human GITR (hGITR) and cynomolgus monkey GITR (cGITR) were determined by surface plasmon resonance assay using a BIAcore 2000 (BIAcore Inc., […].). Briefly, a CM5 BIAcore biosensor chip was docked into the instrument and activated with 250 μL of 1:1 NHS/EDC at room temperature. A rabbit anti-mouse Fc IgG1 mAb (BIAcore #BR-1005-14) (13.5 μg/mL in 0.05M acetate buffer, pH 5) was immobilized on the activated chips in Flow cell 1. The immobilization was carried out at a flow rate of 5 μL/min. The chip was then blocked by injection of 55 μL of ethanolamine-HCl, pH 8.5, followed by five washes with 50 mM NaOH, 1M NaCl. To measure the binding of anti-GITR mabs to the human GITR protein or cyno GITR protein, antibodies were used at 2 μg/mL in BIAcore running buffer (HBS-EP). Antigens (human GITR or cyno GITR) were injected from 3 to 1000 nM. Following completion of the injection phase, dissociation was monitored in a BIAcore running buffer at the same flow rate for 360 sec. The surface was regenerated between injections using 30 μL of 50 mM NaOH-1 M NaCl. Individual sensorgrams were analyzed using […].

Row | Binder | Ratio cKD/hKD
1 | B1 | 5.3
2 | B2 | 5.3
3 | B3 | 5.5
4 | B4 | 4.7

These binders were tested against T1, human GITR expressed on cells (assay: FACS on HEK293-Trex-hGITR cells, Michaelis binding plot).
Experimental: (§2) Wells were washed 3 times with 200 μl/well of PBS+1% BSA by centrifugation at 350 g for 5 minutes. Then, 100 μL of a 1:400 dilution of Alexa 647-conjugated, anti-human IgG-Fc (Invitrogen) was added to each well. Following incubation at 4° C. for 45 minutes in the dark, the plate was washed with PBS-1% BSA three times. Cells were resuspended in 150 μL of PBS-1% BSA and analyzed using GUAVA instrument.

Row | Binder | Kd
5 | B5 | 4.68 nM
6 | B6 | 4.96 nM
7 | B7 | 4.03 nM
8 | B8 | 5.51 nM
9 | B9 | 5.55 nM
10 | B10 | 4.52 nM

Each binder was assayed against T1, human GITR expressed on cells (assay: FACS (Guava) on HEK293-Trex-hGITR cells, Alexa 647 anti-human IgG-Fc detection; fitted half-maximal concentration in the legend box, unit from the x axis 'mAb concentrations (µg/mL)').
Experimental: as §2

Row | Binder | EC50
11 | B5 | 0.278 µg/mL
12 | B6 | 0.238 µg/mL
13 | B7 | 0.206 µg/mL
14 | B8 | 0.333 µg/mL
15 | B9 | 0.337 µg/mL
16 | B10 | 0.259 µg/mL

What follows are binders tested against T1, human GITR expressed on cells (assay: Meso Scale assay, Sulfo-conjugated antibody on coated HEK293-Trex-hGITR cells).
Experimental: The binding kinetics of anti-GITR antibodies to hGITR expressed on the surface of HEK293 cells were determined by Meso Scale assay. HEK293-Trex-hGITR cells (#2404) were coated at 25000 cells/well on a 96-well High Bind plate (MSD L15XB-3) for 2 hours at room temperature. Wells were washed 2 times with 150 μl/well of PBS and blocked with 150 μl/well of blocking solution for 30 min at room temperature. Following two washes with 150 μl/well of PBS, 25 μL/well of Sulfo-conjugated antibodies were added in 2-fold serial dilutions starting at 100 μg/ml up to 12 dilutions in assay diluent and incubated for 45 min at room temperature followed by two washes with PBS. The antibody binding was evaluated by adding 150 μl/well 1× Read buffer T without surfactant and read using the Mesoscale instrument.

Row | Binder | Kd
17 | B1 | 7.24 nM
18 | B2 | 5.38 nM
19 | B3 | 6.8 nM
20 | B4 | 4.44 nM

Each binder was assayed against T2, human GITR-Fc fusion protein (assay: competition ELISA, GITRL coated, GITR 0.25 µg/mL pre-incubated with antibody).
Experimental: Ninety-six well plates were coated with GITR-Ligand proteins at 0.5 μg/well at 4° C. overnight. Wells were washed with washing buffer (PBS pH 7.4+0.05 Tween 20) and blocked with 200 μL of blocking buffer (PBS pH 7.4+0.05% Tween 20+1% BSA) for 1 hour at room temperature. […] Plates were washed four times with washing buffer and GITR-Ligand-bound recombinant human GITR-Fc was detected with the use of peroxidase-conjugated goat, anti-human IgG-Fc (Sigma), followed by incubation with the TMB substrate (Interchim ref UP664780).

Row | Binder | IC50
21 | B5 | 0.93 nM
22 | B6 | 1.15 nM
23 | B7 | 1.08 nM
24 | B8 | 1.26 nM
25 | B9 | 1.13 nM
26 | B10 | 1.21 nM

What follows are binders tested against T2, human GITR-Fc fusion protein (assay: SPR (BIAcore 2000), mAb captured on anti-mouse Fc, antigen injected).
Experimental: as §1

Row | Binder | Kd | koff
27 | B1 | 5.95 nM | 0.000221 s⁻¹
28 | B2 | 1.84 nM | 7.44e-05 s⁻¹
29 | B3 | 6.67 nM | 0.000224 s⁻¹
30 | B4 | 4.43 nM | 0.000177 s⁻¹

The binders below were run against T4, cynomolgus monkey GITR-Fc in the same assay as above.
Experimental: as §1

Row | Binder | Kd | koff
31 | B1 | 31.8 nM | 0.000662 s⁻¹
32 | B2 | 9.68 nM | 0.00021 s⁻¹
33 | B3 | 36.8 nM | 0.000707 s⁻¹
34 | B4 | 20.9 nM | 0.000473 s⁻¹

Each binder was assayed against T3, human GITR protein (form not stated) (assay: ELISA, GITR protein coated).
Experimental: Ninety-six well plates were coated with GITR protein at 0.25 μg/well at 4° C., overnight. Wells were washed with washing buffer (PBS pH 7.4+0.05 Tween 20) and blocked with 200 μL of blocking buffer (PBS pH 7.4+0.05% Tween 20+1% BSA) for 1 hour at room temperature. […] The plate was incubated at room temperature for 1 h and washed five times with PBS-T. Then, 100 μL of a 1:50 000 dilution of peroxidase-conjugated goat anti-human IgG-Fc (Sigma)) was added to each well. Following incubation at room temperature for 1 h in the dark, the plate was washed with PBS-T, five times. Antibody binding was visualized by adding 100 μL/well of TMB-H₂O₂ substrate buffer (Interchim) The reaction proceeded at room temperature for 10 min and was read using an ELISA plate reader at a wavelength of 450 nm.

Row | Binder | EC50
35 | B5 | 1.34 nM
36 | B6 | 1.24 nM
37 | B7 | 0.91 nM
38 | B8 | 2.17 nM
39 | B9 | 0.97 nM
40 | B10 | 1.08 nM

What follows are binders tested against T2, human GITR-Fc fusion protein (assay: competition ELISA, GITRL coated, GITR-Fc 0.25 µg/mL pre-incubated with antibody).
Experimental: The ability of anti-GITR antibodies to inhibit the binding of human GITRL to hGITR was assessed using a competition ELISA. Ninety-six well plates were coated with GITR-Ligand protein at 0.5 μg/well at 4° C., overnight. Wells were washed with washing buffer (PBS pH 7.4+0.05 Tween 20) and blocked with 200 μL of blocking buffer (PBS pH 7.4+0.05% Tween 20+1% BSA) for 1 hour at room temperature. Wells were then washed two times with washing buffer and exposed to 100 μL of pre-incubated mixtures of GITR-Fc at 0.25 μg/mL plus anti-GITR antibody in 2-fold serial dilutions starting at 10 μg/ml up to 12 dilutions for 1 hour at room temperature with agitation. Plates were washed four times with washing buffer and GITR-Ligand-bound recombinant human GITR-Fc was detected with the use of peroxidase-conjugated goat anti-human IgG-Fc (Sigma), followed by incubation with the TMB substrate (Interchim)
All antibodies generated using the methods disclosed herein were able to antagonize the binding of GITRL to GITR more potently than the prior art MAB689 antibody.

Row | Binder | IC50
41 | B1 | 2.82 nM
42 | B2 | 3.76 nM
43 | B3 | 1.9 nM
44 | B4 | 2.5 nM
